Measurements taken from patent US20230140397A1 (JIANGSU HENGRUI PHARMACEUTICALS, published 2023).

Tests used:
[1] = biological target: T1, prostate specific membrane antigen (PSMA) on prostate cancer cells (human, UniProt Q04609 1-750); test: cell-based or functional assay
[2] = biological target: T1, prostate specific membrane antigen …; test: flow cytometry on MDA PCa 2b cells, FITC anti-human IgG secondary
Method: (§1) In this experiment, fluorescence signals of antibodies on the cell surface were detected, and the binding of the antibodies was evaluated according to the intensity of the fluorescence signals.
(§2) The cells were incubated with an FITC-labeled goat anti-human IgG (H+L) secondary antibody (Jackson Immuno Research, 109-095-003) at 4° C. for 30 min, and then excess antibodies were washed off. The fluorescence signals on the cell surface were read using BD CantoII. The results are shown in Table 2, FIG. 1A, FIG. 1B, FIG. 1C, FIG. 1D, and FIG. 1E.

[3] = biological target: T1, prostate specific membrane antigen …; test: flow cytometry on 22Rv1 cells, FITC anti-human IgG secondary
Method: as §1, §2

[4] = biological target: T1, prostate specific membrane antigen …; test: flow cytometry on LNCaP cells, FITC anti-human IgG secondary
Method: as §1, §2

[5] = biological target: T1, prostate specific membrane antigen …; test: flow cytometry on MDA PCa 2b cells (PSMA-expressing), FITC anti-human IgG detection

T1 sequence (Q04609 whole entry): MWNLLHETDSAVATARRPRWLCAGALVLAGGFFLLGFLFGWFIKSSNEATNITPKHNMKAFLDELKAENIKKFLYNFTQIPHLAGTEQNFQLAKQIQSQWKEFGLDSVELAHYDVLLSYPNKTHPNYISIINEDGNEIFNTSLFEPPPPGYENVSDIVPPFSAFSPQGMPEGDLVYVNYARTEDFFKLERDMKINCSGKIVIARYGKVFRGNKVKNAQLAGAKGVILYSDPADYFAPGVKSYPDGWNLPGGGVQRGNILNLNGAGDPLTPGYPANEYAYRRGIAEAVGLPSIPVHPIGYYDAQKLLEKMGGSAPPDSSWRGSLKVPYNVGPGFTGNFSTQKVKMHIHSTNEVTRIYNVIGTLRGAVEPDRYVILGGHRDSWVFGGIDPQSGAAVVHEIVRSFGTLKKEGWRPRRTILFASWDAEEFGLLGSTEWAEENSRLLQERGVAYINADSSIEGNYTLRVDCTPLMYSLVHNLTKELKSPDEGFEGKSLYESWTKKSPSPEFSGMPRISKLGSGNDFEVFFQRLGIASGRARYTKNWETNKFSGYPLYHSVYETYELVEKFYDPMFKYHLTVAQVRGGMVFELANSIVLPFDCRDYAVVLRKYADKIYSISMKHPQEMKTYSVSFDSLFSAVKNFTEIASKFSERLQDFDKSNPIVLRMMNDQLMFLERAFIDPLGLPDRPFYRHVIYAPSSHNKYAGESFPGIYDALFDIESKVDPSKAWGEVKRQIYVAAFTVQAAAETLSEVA

Row | Binder | Endocytic activity of different cells to the antibodies (IC50, nM); DT3C-mediated cell killing, 22RV1 cells [1] [nM] | EC50 [2] [pM] | EC50 [3] [pM] | EC50 [4] [pM] | binding result [5]
1 | Antibody PM (intact full-length anti-PSMA antibody PM, variable regions of AB-PG1-XG1-006) (antibody, V domains shown, Full-length IgG1/kappa (VH-CH1-Fc/VK-CL), expressed in HEK293E cells; also called AB-PG1-XG1-006 (variable regions)) VH: QVQLVESGGGVVQPGRSLRLSCAASGFAFSRYGMHWVRQAPGKGLEWVAVIWYDGSNKYYADSVKGRFTISRDNSKNTQYLQMNSLRAEDTAVYYCARGGDFLYYYYYGMDVWGQGTTVTVSS VL: DIQMTQSPSSLSASVGDRVTITCRASQGISNYLAWYQQKTGKVPKFLIYEASTLQSGVPSRFSGGGSGTDFTLTISSLQPEDVATYYCQNYNSAPFTFGPGTKVDIKR | 0.0856 | 1080 | 676 | 1420 | –
2 | ADC-2 (exemplary product of the conjugate of formula PM-9-A, n=6.63) (antibody, V domains shown, drug-linker compound 9-A coupled via a mercapto group on cysteine after TCEP reduction; positions not given; mean n=6.63 per antibody (UV-Vis); drug-linker compound 9-A (exatecan analog with linking unit) coupled via a mercapto group on cysteine after TCEP reduction; positions not given; mean n=6.63 per antibody (UV-Vis), also called PSMA ADC) VH: QVQLVESGGGVVQPGRSLRLSCAASGFAFSRYGMHWVRQAPGKGLEWVAVIWYDGSNKYYADSVKGRFTISRDNSKNTQYLQMNSLRAEDTAVYYCARGGDFLYYYYYGMDVWGQGTTVTVSS VL: DIQMTQSPSSLSASVGDRVTITCRASQGISNYLAWYQQKTGKVPKFLIYEASTLQSGVPSRFSGGGSGTDFTLTISSLQPEDVATYYCQNYNSAPFTFGPGTKVDIKR | – | 718 | 571 | 938 | –
3 | ADC-10 (exemplary product of the conjugate of formula PM-VcMMAE, n=3.92) (antibody, V domains shown, VcMMAE coupled via a mercapto group on cysteine after TCEP reduction; positions not given; mean n=3.92 per antibody (CE-SDS); VcMMAE (CAS 646502-53-6) coupled via a mercapto group on cysteine after TCEP reduction; positions not given; mean n=3.92 per antibody (CE-SDS), also called positive ADC-10) VH: QVQLVESGGGVVQPGRSLRLSCAASGFAFSRYGMHWVRQAPGKGLEWVAVIWYDGSNKYYADSVKGRFTISRDNSKNTQYLQMNSLRAEDTAVYYCARGGDFLYYYYYGMDVWGQGTTVTVSS VL: DIQMTQSPSSLSASVGDRVTITCRASQGISNYLAWYQQKTGKVPKFLIYEASTLQSGVPSRFSGGGSGTDFTLTISSLQPEDVATYYCQNYNSAPFTFGPGTKVDIKR | – | 954 | 689 | 1580 | –
4 | Lmab-9-A (control antibody-drug conjugate of labeuzumab with compound 9-A, n=7.07) (antibody, human IgG1, kappa, V domains shown, drug-linker compound 9-A coupled to cysteine after TCEP reduction; positions not given; mean n=7.07 per antibody (UV-Vis), also called control ADC Lmab-9-A; ADCLmab-9-A) VH: EVQLVESGGGVVQPGRSLRLSCSASGFDFTTYWMSWVRQAPGKGLEWIGEIHPDSSTINYAPSLKDRFTISRDNAKNTLFLQMDSLRPEDTGVYFCASLYFGFPWFAYWGQGTPVTVSS VL: DIQLTQSPSSLSASVGDRVTITCKASQDVGTSVAWYQQKPGKAPKLLIYWTSTRHTGVPSRFSGSGSGTDFTFTISSLQPEDIATYYCQQYSLYRSFGQGTKVEIKR | – | – | – | – | no binding
